The target in the data set is CCR7 (UniProt P32248 P32248:25-378). Briefly: EMSA; + in gel shift assay. Background: In EMSA bound probe runs differently from free probe, usually more slowly.
CCR7, sequence (P32248 25-378, one chain of several): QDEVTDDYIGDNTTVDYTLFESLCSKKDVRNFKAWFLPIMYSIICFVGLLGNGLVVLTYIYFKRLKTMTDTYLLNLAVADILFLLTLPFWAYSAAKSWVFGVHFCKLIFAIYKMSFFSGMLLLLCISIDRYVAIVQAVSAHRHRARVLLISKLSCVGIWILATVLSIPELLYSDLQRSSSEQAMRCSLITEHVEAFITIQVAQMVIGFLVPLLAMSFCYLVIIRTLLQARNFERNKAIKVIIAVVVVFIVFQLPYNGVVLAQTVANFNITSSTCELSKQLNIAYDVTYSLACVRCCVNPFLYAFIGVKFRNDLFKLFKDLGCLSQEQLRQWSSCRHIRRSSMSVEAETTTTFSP

B1: C-6 (ssRNA)
RNA: GGGAGGACGAUGCGGUCCAUCGUCUCUUAUCGUCUCUUGUCGCGCCAGACGACUCGCCCGA
Take B1: the binding result was “binds”.

For the origin of these results see patent US20210330692, “CCR7 APTAMERS AND USES THEREOF” (CITY OF HOPE, published 2021).
